Source: patent publication US20120030779A1 (UNIVERSITY OF UTAH RESEARCH FOUNDTION, published 2012)

Target: T1, glucose-6-phosphate dehydrogenase (G6PD), mouse heart (mouse, UniProt Q00612 2-515)
T1 construct: Endogenous protein immunoprecipitated or detected with rabbit anti-G6PD; also called G6PDH
Assay: co-immunoprecipitation (anti-G6PD IP, anti-CryAB blot) from NTg mouse heart homogenate
Protocol: Immunoprecipitation and Immunoblotting: Heart homogenates were first prepared in TBS (10 mM Tris, 150 mM NaCl, pH 7.4) and centrifuged at 10,000 g for 15 minutes at 4° C.

T1 sequence (Q00612 2-515 limits assumed): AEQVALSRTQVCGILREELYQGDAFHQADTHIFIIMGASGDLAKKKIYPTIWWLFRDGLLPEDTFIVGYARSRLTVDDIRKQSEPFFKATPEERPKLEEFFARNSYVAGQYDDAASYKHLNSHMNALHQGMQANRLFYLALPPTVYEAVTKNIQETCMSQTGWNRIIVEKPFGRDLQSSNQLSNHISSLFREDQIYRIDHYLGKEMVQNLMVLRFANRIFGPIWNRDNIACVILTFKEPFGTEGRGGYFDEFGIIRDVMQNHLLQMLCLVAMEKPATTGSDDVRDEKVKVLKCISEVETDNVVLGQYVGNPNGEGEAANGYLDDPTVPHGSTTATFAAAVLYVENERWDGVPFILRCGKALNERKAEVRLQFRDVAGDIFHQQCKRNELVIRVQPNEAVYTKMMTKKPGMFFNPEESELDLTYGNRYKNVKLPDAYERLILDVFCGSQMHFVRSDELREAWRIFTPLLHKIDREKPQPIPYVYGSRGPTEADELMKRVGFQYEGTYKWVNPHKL

binding result: no binding
B1: mouse alphaB-crystallin (endogenous CryAB of non-transgenic mouse heart) (other, UniProt P23927 1-175, looked up)
chain: MDIAIHHPWIRRPFFPFHSPSRLFDQFFGEHLLESDLFSTATSLSPFYLRPPSFLRAPSWIDTGLSEMRLEKDRFSVNLDVKHFSPEELKVKVLGDVIEVHGKHEERQDEHGFISREFHRKYRIPADVDPLTITSSLSSDGVLTVNGPRKQVSGPERTIPITREEKPAVAAAPKK
notes: Only CryAB present in NTg heart extracts; also called CryAB (NTg)
